Source: US10683329B2, “Dual-site BACE1 inhibitors” (priority 2014, dated 2020)
*1 amine or outer side, *2 acyl side, *3 side chain or, on linkers, in order; H or OH if unused. Where no end group is shown, it is not given here. [ ]: non-standard residue; d: D form. The star is where a group is joined. Chol‑27‑TFA‑ester = succinamic acid (3S,8S,9S,10R,13R,14S,17R)-17-[(1R,5R)-1,5-dimethyl-6-(2,2,2-trifluoro-acetoxy)-hexyl]-10,13-dimethyl-2,3,4,7,8,9,10,11,12,13,14,15,16,17-tetradecahydro-1H-cyclopenta[a]phenanthren-3-yl ester, C[C@H](CCC[C@@H](C)[C@H]1CC[C@H]2[C@@H]3CC=C4C[C@@H](OC(=O)CCC(=O)*)CC[C@]4(C)[C@H]3CC[C@]12C)COC(=O)C(F)(F)F; MetSta(3S,4S) = CSCC[C@H](N[*:1])[C@@H](O)CC(=O)[*:2]; Sta = CC(C)C[C@H](N)[C@@H](O)CC(=O)O; 27‑OH‑Chol = 27-hydroxycholesterol; PEG4 = NCCOCCOCCOCCOCCC(=O)O; Lauroyl = CCCCCCCCCCCC(=O)*; PEG3 = NCCOCCOCCOCCC(=O)O; Aun = NCCCCCCCCCCC(=O)O; Ahx = NCCCCCC(=O)O

B1: Tyr-Pro-Tyr-Phe-Ile-Pro-Leu-Gly-Gly-Gly-Glu-Val-Asn-Leu*Ala-Ala-Glu-DPro-Lys(Chol)-NH2 x TFA (peptide)
peptide: YPYFIPLGGGEVNLAAE[dP]K(Chol)-NH2
modifications: also: Leu14*Ala15 Tang hydroxyethylene dipeptide isostere, trifluoroacetate salt

Molecular target: BACE1 enzyme (UniProt P56817 46-501, limits assumed)
Test: cell-based or functional assay

BACE1 enzyme, sequence (P56817 46-501 limits assumed): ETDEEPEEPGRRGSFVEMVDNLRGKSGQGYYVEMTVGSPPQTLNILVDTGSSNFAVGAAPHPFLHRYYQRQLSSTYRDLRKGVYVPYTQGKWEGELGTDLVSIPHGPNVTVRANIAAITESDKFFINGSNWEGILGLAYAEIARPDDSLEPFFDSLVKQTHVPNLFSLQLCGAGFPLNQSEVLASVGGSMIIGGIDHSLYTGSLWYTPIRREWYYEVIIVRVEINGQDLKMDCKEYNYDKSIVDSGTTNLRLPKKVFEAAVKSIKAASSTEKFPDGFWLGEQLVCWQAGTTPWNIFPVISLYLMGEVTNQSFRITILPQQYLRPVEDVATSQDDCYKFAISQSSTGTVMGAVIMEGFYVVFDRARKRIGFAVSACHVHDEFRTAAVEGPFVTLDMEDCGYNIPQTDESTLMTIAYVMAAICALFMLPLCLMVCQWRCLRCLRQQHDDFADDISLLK

Binder | IC50, cellular Aβ-lowering assay (Aβ40 in supernatant of HEK293 cells expressing human APP695)
YPYFIPLGGGEVN[MetSta(3S,4S)]VAE[dF]K(C14)-NH2 (also: x TFA salt) [Tyr-Pro-Tyr-Phe-Ile-Pro-Leu-Gly-Gly-Gly-Glu-Val-Asn-MetSta-Val-Ala-Glu-DPhe-Lys(C14)-NH2 x TFA] | 1260 nM
YPYFIKL[PEG4]EVN[Sta]VAE[dP]K(Chol)-NH2 (numbers in words are those of the source; also: x 2TFA salt) [Tyr-Pro-Tyr-Phe-Ile-Lys-Leu-PEG(4)-Glu-Val-Asn-Sta-Val-Ala-Glu-DPro-Lys(Chol)-NH2 x 2TFA] | 0.0228 nM
YPYFIPLGGGGGGEVN[Sta]VAE[dP]K(Chol)-NH2 (also: TFA salt) | 0.028 nM
KPYFIPLG[dK]GEVN[Sta]VAE[dP]K(Chol'ester')-NH2 (also: x 3TFA salt) | 0.02 nM
YPYFIKLG[dK]GEVN[Sta]VAE[dP]K(Chol)-NH2 (also: x 3TFA salt) [Tyr-Pro-Tyr-Phe-Ile-Lys-Leu-Gly-DLys-Gly-Glu-Val-Asn-Sta-Val-Ala-Glu-DPro-Lys(Chol)-NH2 x 3TFA] | 0.0176 nM
YPYFKPLGGGEVN[Sta]VAE[dP]K(Chol)-NH2 (also: 2TFA salt) [Tyr-Pro-Tyr-Phe-Lys-Pro-Leu-Gly-Gly-Gly-Glu-Val-Asn-Sta-Val-Ala-Glu-DPro-Lys(Chol)-NH2 x 2TFA] | 0.00732 nM
YPYFIPLGGGEVN[Sta]VAEFK(Chol)-NH2 (also: x TFA salt) [Tyr-Pro-Tyr-Phe-Ile-Pro-Leu-Gly-Gly-Gly-Glu-Val-Asn-Sta-Val-Ala-Glu-Phe-Lys(Chol)-NH2 x TFA] | 0.19 nM
YPYFIPL[PEG3]EVN[MetSta(3S,4S)]VAE[dF]K(Chol)-NH2 (also: TFA salt) [Tyr-Pro-Tyr-Phe-Ile-Pro-Leu-PEG(3)-Glu-Val-Asn-MetSta-Val-Ala-Glu-DPhe-Lys(Chol)-NH2 x TFA] | 0.036 nM
LIYFPYPGGGGEVN[Sta]VAE[dP]K(Chol)-NH2 (also: x TFA salt) [Leu-Ile-Tyr-Phe-Pro-Tyr-Pro-Gly-Gly-Gly-Gly-Glu-Val-Asn-Sta-Val-Ala-Glu-DPro-Lys(Chol)-NH2 x TFA] | 0.28 nM
YPYFIPLGGGEVN[Sta]VAE[dP]K(Chol‑27‑TFA‑ester)-NH2 (also: x TFA salt) | 5.2 nM
YPYFIPLGKGEVN[Sta]VAE[dP]K(Chol)-NH2 (also: 2TFA salt) [Tyr-Pro-Tyr-Phe-Ile-Pro-Leu-Gly-Lys-Gly-Glu-Val-Asn-Sta-Val-Ala-Glu-DPro-Lys(Chol)-NH2 x 2TFA] | 0.0295 nM
YPYKIPLG[dK]GEVN[Sta]VAE[dP]K(Chol'ester')-NH2 (also: x 3TFA salt) | 2.3 nM
YPYFIPLGG[dK]EVN[Sta]VAE[dP]K(Chol)-NH2 (also: x 2TFA salt) [Tyr-Pro-Tyr-Phe-Ile-Pro-Leu-Gly-Gly-DLys-Glu-Val-Asn-Sta-Val-Ala-Glu-DPro-Lys(Chol)-NH2 x 2TFA] | 0.118 nM
YPYFIPL[Aun]EVN[Sta]VAE[dP]K(Chol)-NH2 (also: TFA salt) [Tyr-Pro-Tyr-Phe-Ile-Pro-Leu-NH(CH2)10CO-Glu-Val-Asn-Sta-Val-Ala-Glu-DPro-Lys(Chol)-NH2 x TFA] | 0.36 nM
YPYFIPLGGGGEVNXVAEFK (MetSta at 15; DPhe at 19; Lys(Chol) at 20; C-terminal NH2) [Tyr-Pro-Tyr-Phe-Ile-Pro-Leu-Gly-Gly-Gly-Gly-Glu-Val-Asn-MetSta-Val-Ala-Glu-DPhe-Lys(Chol)-NH2 x TFA] | 0.052 nM
YPYFIPLGGGEVN[Sta]VAE[dP]K(Chol)-NH2 (also: x TFA salt) [Tyr-Pro-Tyr-Phe-Ile-Pro-Leu-Gly-Gly-Gly-Glu-Val-Asn-Sta-Val-Ala-Glu-DPro-Lys(Chol)-NH2 x TFA] | 0.027 nM
Ac-YPYFIPLGGGEVN[Sta]VAE[dP]K(Chol)-NH2 (also: x TFA salt) [Ac-Tyr-Pro-Tyr-Phe-Ile-Pro-Leu-Gly-Gly-Gly-Glu-Val-Asn-Sta-Val-Ala-Glu-DPro-Lys(Chol)-NH2] | 0.017 nM
YPYFIPL[Ahx]EVN[Sta]VAE[dP]K(Chol)-NH2 (also: TFA salt) [Tyr-Pro-Tyr-Phe-Ile-Pro-Leu-NH(CH2)5CO-Glu-Val-Asn-Sta-Val-Ala-Glu-DPro-Lys(Chol)-NH2 x TFA] | 0.075 nM
YPYFIPL[PEG3]EVN[Sta]VAE[dP]K(Chol)-NH2 (also: TFA salt) [Tyr-Pro-Tyr-Phe-Ile-Pro-Leu-PEG(3)-Glu-Val-Asn-Sta-Val-Ala-Glu-DPro-Lys(Chol)-NH2 x TFA] | 0.043 nM
YPYFIPLGGGGGEVNXVAEFK (MetSta at 16; DPhe at 20; Lys(Chol) at 21; C-terminal NH2) | 0.07 nM
YPYFIPLGGGEVN[Sta]VAE[dP]K(Chol'ether')-NH2 (also: x TFA salt) [Tyr-Pro-Tyr-Phe-Ile-Pro-Leu-Gly-Gly-Gly-Glu-Val-Asn-Sta-Val-Ala-Glu-DPro-Lys(Chol'ether')-NH2 x TFA] | 0.0264 nM
YPYFIPLGGEVN[Sta]VAE[dP]K(Chol)-NH2 (also: x TFA salt) [Tyr-Pro-Tyr-Phe-Ile-Pro-Leu-Gly-Gly-Glu-Val-Asn-Sta-Val-Ala-Glu-DPro-Lys(Chol)-NH2 x TFA] | 0.27 nM

Binder | IC50, cellular Aβ-lowering assay (Aβ40 in supernatant of HEK293 cells expressing human APP695)
YPYFIPL[PEG4]EVN[MetSta(3S,4S)]VAE[dF]K(Chol)-NH2 (also: TFA salt) [Tyr-Pro-Tyr-Phe-Ile-Pro-Leu-PEG(4)-Glu-Val-Asn-MetSta-Val-Ala-Glu-DPhe-Lys(Chol)-NH2 x TFA] | 0.018 nM
YPYFIPLGGGEVN[Sta]VAE[dP]K(Lauroyl)-NH2 (also: x TFA salt) [Tyr-Pro-Tyr-Phe-Ile-Pro-Leu-Gly-Gly-Gly-Glu-Val-Asn-Sta-Val-Ala-Glu-DPro-Lys(C12)-NH2 x TFA] | 450 nM
YPYFIKLGGGEVN[Sta]VAE[dP]K(Chol)-NH2 (also: x 2TFA salt) [Tyr-Pro-Tyr-Phe-Ile-Lys-Leu-Gly-Gly-Gly-Glu-Val-Asn-Sta-Val-Ala-Glu-DPro-Lys(Chol)-NH2 x 2TFA] | 0.0117 nM
YPYFKPLG[dK]GEVN[Sta]VAE[dP]K(Chol)-NH2 (also: 3TFA salt) [Tyr-Pro-Tyr-Phe-Lys-Pro-Leu-Gly-DLys-Gly-Glu-Val-Asn-Sta-Val-Ala-Glu-DPro-Lys(Chol)-NH2 x 3TFA] | 0.0263 nM
YPYFIPL[dK]GGEVN[Sta]VAE[dP]K(Chol)-NH2 (also: x 2TFA salt) [Tyr-Pro-Tyr-Phe-Ile-Pro-Leu-DLys-Gly-Gly-Glu-Val-Asn-Sta-Val-Ala-Glu-DPro-Lys(Chol)-NH2 x 2TFA] | 0.177 nM
YPYFIPL[PEG4]EVN[Sta]VAE[dP]K(Chol)-NH2 (also: TFA salt) [Tyr-Pro-Tyr-Phe-Ile-Pro-Leu-PEG(4)-Glu-Val-Asn-Sta-Val-Ala-Glu-DPro-Lys(Chol)-NH2 x TFA] | 0.027 nM
YKYFIPLG[dK]GEVN[Sta]VAE[dP]K(Chol'ester')-NH2 (also: x 3TFA salt) | 0.25 nM
YPYFIPLKGGEVN[Sta]VAE[dP]K(Chol)-NH2 (also: 2TFA salt) [Tyr-Pro-Tyr-Phe-Ile-Pro-Leu-Lys-Gly-Gly-Glu-Val-Asn-Sta-Val-Ala-Glu-DPro-Lys(Chol)-NH2 x 2TFA] | 0.0235 nM
YPYFIPLGGKEVN[Sta]VAE[dP]K(Chol)-NH2 (also: 2TFA salt) [Tyr-Pro-Tyr-Phe-Ile-Pro-Leu-Gly-Gly-Lys-Glu-Val-Asn-Sta-Val-Ala-Glu-DPro-Lys(Chol)-NH2 x 2TFA] | 0.0771 nM
YPYFIPLGGGEVN[Sta]VAE[dP]K(27‑OH‑Chol)-NH2 (also: x TFA salt) [Tyr-Pro-Tyr-Phe-Ile-Pro-Leu-Gly-Gly-Gly-Glu-Val-Asn-Sta-Val-Ala-Glu-DPro-Lys(27-OH-Chol)-NH2 x TFA] | 6.3 nM
YPKFIPLGGGEVN[Sta]VAE[dP]K(Chol)-NH2 (also: x 2TFA salt) [Tyr-Pro-Lys-Phe-Ile-Pro-Leu-Gly-Gly-Gly-Glu-Val-Asn-Sta-Val-Ala-Glu-DPro-Lys(Chol)-NH2 x 2TFA] | 0.0135 nM
Ac-YPYFIPL[PEG4]EVN[Sta]VAE[dP]K(Chol)-NH2 [Ac-Tyr-Pro-Tyr-Phe-Ile-Pro-Leu-PEG(4)-Glu-Val-Asn-Sta-Val-Ala-Glu-DPro-Lys(Chol)-NH2] | 0.041 nM
LIYFPYPGGGEVN[Sta]VAE[dP]K(Chol)-NH2 (also: x TFA salt) [Leu-Ile-Tyr-Phe-Pro-Tyr-Pro-Gly-Gly-Gly-Glu-Val-Asn-Sta-Val-Ala-Glu-DPro-Lys(Chol)-NH2 x TFA] | 0.22 nM
YPYFIPLGGGEVN[Sta]DAE[dP]K(Chol)-NH2 (also: x TFA salt) [Tyr-Pro-Tyr-Phe-Ile-Pro-Leu-Gly-Gly-Gly-Glu-Val-Asn-Sta-Asp-Ala-Glu-DPro-Lys(Chol)-NH2 x TFA] | 18 nM
YPYFKPL[PEG4]EVN[Sta]VAE[dP]K(Chol)-NH2 (numbers in words are those of the source; also: 2TFA salt) [Tyr-Pro-Tyr-Phe-Lys-Pro-Leu-PEG(4)-Glu-Val-Asn-Sta-Val-Ala-Glu-DPro-Lys(Chol)-NH2 x 2TFA] | 0.0235 nM
YPYFIPLGGGEVN[Sta]VAE[dP]K(C14)-NH2 (also: x TFA salt) [Tyr-Pro-Tyr-Phe-Ile-Pro-Leu-Gly-Gly-Gly-Glu-Val-Asn-Sta-Val-Ala-Glu-DPro-Lys(C14)-NH2 x TFA] | 140 nM
YPKFKPLG[dK]GEVN[Sta]VAE[dP]K(Chol)-NH2 (also: x 4TFA salt) [Tyr-Pro-Lys-Phe-Lys-Pro-Leu-Gly-DLys-Gly-Glu-Val-Asn-Sta-Val-Ala-Glu-DPro-Lys(Chol)-NH2 x 4TFA] | 0.0218 nM
YPKFIPLG[dK]GEVN[Sta]VAE[dP]K(Chol'ether')-NH2 (also: x 3TFA salt) | 0.00828 nM
B1 | 0.0024 nM
YPYFIPLG[dK]GEVN[Sta]VAE[dP]K(Chol'ester')-NH2 (also: x 2TFA salt) | 0.025 nM
YPKFIPLG[dK]GEVN[Sta]VAE[dP]K(Chol)-NH2 (also: x 3TFA salt) [Tyr-Pro-Lys-Phe-Ile-Pro-Leu-Gly-DLys-Gly-Glu-Val-Asn-Sta-Val-Ala-Glu-DPro-Lys(Chol)-NH2 x 3TFA] | 0.0203 nM
